We go through two molecules from publication PMC1781754 (2000).

The target in this assay is T1, IL-5 receptor alpha/beta (Homo sapiens, UniProt Q01344).
T1 chain 1: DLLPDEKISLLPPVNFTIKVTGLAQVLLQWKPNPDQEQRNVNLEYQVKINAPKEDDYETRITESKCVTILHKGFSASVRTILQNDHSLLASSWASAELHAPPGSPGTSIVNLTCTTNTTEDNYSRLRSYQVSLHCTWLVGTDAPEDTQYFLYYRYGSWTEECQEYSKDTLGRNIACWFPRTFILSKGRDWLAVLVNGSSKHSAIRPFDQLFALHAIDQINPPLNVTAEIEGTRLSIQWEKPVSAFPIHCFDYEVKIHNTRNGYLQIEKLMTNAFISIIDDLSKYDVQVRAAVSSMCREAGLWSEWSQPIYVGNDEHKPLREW
T1 chain 2: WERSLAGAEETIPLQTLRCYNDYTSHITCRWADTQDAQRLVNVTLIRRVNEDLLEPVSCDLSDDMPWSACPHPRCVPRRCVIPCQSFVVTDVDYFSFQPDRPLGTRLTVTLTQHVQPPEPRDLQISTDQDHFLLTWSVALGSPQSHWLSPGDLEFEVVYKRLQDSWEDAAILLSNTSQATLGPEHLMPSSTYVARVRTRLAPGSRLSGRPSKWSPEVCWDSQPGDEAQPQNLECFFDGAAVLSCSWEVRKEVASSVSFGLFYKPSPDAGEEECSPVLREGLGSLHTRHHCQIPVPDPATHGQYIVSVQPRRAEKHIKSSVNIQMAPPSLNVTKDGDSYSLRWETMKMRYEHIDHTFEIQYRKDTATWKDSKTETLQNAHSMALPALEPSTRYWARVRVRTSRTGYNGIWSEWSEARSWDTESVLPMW
Briefly: radioligand displacement.

B1: IL-5 (protein)
chain: MEIPMSTVVKETLTQLSAHRALLTSNETMRLPVPTHKNHQLCIGEIFQGLDILKNQTVRGGTVEMLFQNLSLIKKYIDRQKEKCGEERRRTRQFLDYLQEFLGVMSTEWAMEG
As for B1, the Ki was 0.17 nM.

B2: IL-5 (protein)
chain: IPKQSATLRALVRETLTLLSTHRTLLKGNETLRISVPAHKNHQLCIEEIFQGIDTLKNQTTQGEALATLFQNLSLIKKHIDLQKQKCGEERRRVKQFLDYLQEFLAVINTEWTIEG
B2 showed a Ki of 0.75 nM.
